This note sets out measurements from PMC5418593.

In data set [1] the target is T1, hEXOG wild type (hEXOG-dN58) (human, UniProt Q9Y2C4 59-368, del2-58). Description: EMSA; 20 mM EDTA; apparent Kd; EK140: 20 mM HEPES pH 7.5, 140 mM KCl, 1 mM TCEP, 5% glycerol; plus 20 mM EDTA for anisotropy and EMSA (gel at 4 C, 0.5x TBE with 20 mM EDTA); ITC in EK140 at 20 C. As to conditions: protein: recombinant; tags: C-terminal His-tag; chain copies: 2; label: 5'-32P; 10 bp duplex. For orientation: In EMSA bound probe runs differently from free probe, usually more slowly.

For data set [2], the target named is T2, hEXOG-R314A (human, UniProt Q9Y2C4 59-368, R314A;del2-58). The description is as above. Particulars: protein: recombinant; tags: C-terminal His-tag; chain copies: 2; label: 5'-32P; 10 bp duplex.
In data set [3] the target is T1, hEXOG wild type (hEXOG-dN58). Description: fluorescence anisotropy; 20 mM EDTA; apparent Kd; EK140: 20 mM HEPES pH 7.5, 140 mM KCl, 1 mM TCEP, 5% glycerol; plus 20 mM EDTA for anisotropy and EMSA (gel at 4 C, 0.5x TBE with 20 mM EDTA); ITC in EK140 at 20 C. Particulars: protein: recombinant; tags: C-terminal His-tag; chain copies: 2; label: 3'-fluorescein; 10 bp duplex. (In general: In fluorescence polarisation assays a small probe gives low polarisation when free and higher when bound to something large.)

Data set [4] concerns the target T2, hEXOG-R314A. Described as above. As to conditions: protein: recombinant; tags: C-terminal His-tag; chain copies: 2; label: 3'-fluorescein; 10 bp duplex.
For data set [5], the target named is T1, hEXOG wild type (hEXOG-dN58). Description: fluorescence anisotropy; 20 mM EDTA; apparent Kd (main text 6.2); EK140: 20 mM HEPES pH 7.5, 140 mM KCl, 1 mM TCEP, 5% glycerol; plus 20 mM EDTA for anisotropy and EMSA (gel at 4 C, 0.5x TBE with 20 mM EDTA); ITC in EK140 at 20 C. Particulars: protein: recombinant; tags: C-terminal His-tag; chain copies: 2; label: 3'-fluorescein; 10 bp duplex.

The target of another data set is hEXOG-H140A (human, UniProt Q9Y2C4 59-368, H140A;del2-58). Description: X-ray crystallography; 1.85 A; DNA in both active sites; EK140: 20 mM HEPES pH 7.5, 140 mM KCl, 1 mM TCEP, 5% glycerol; plus 20 mM EDTA for anisotropy and EMSA (gel at 4 C, 0.5x TBE with 20 mM EDTA); ITC in EK140 at 20 C. As to conditions: protein: recombinant; tags: C-terminal His-tag; chain copies: 2; 10 bp duplex; two duplexes per dimer.

B1: 10 bp dsDNA, 5'-32P (dsDNA)
DNA 1: CTGACGTGCG
DNA 2: CGCACGTCAG
modifications: 5'-phosphate (32P)
As for B1, the figures for the Kd (in data set [1]; with hEXOG-R314A [2]) were 3.4 ± 1.2 nM and 26.5 ± 6.6 nM, respectively.

B2: 10 bp 5'OH-dsDNA, 3'-fluorescein (dsDNA)
DNA 1: CTGACGTGCG
DNA 2: CGCACGTCAG
modifications: 5'-OH
Turning to B2, the Kd in data set [3] was determined as 22.2 ± 5.1 nM.

B3: 10 bp 5'P-dsDNA, 3'-fluorescein (dsDNA)
DNA 1: CTGACGTGCG
DNA 2: CGCACGTCAG
modifications: 5'-phosphate on one strand
In the case of B3, the Kd worked out at 35.7 ± 7.2 nM in the data set with hEXOG-R314A [4] and 6.25 ± 2 nM in data set [5].

B4: 10 bp DNA for crystallization (dsDNA)
DNA 1: CTGACGTGCG
DNA 2: CGCACGTCAG
modifications: 5'-phosphate on one strand only
Regarding B4, the binding result with hEXOG-H140A is on record as “binds”.
